One block for each molecule: values may come before it.
Legend:
[1] = target: α2M receptor on peritoneal macrophages of C57BL/6 mice (mouse) (UniProt Q91ZX7); test: saturation binding of 125I-labeled ligand (0.23-60 nM) to mouse peritoneal macrophages at 4 °C for 16 h; one-site fit; concentration based on the mixture of slow and fast forms
[2] = target: α2M receptor on peritoneal macrophages of C57BL/6 mice (mouse) (UniProt Q91ZX7); test: saturation binding of 125I-labeled ligand (0.23-60 nM) to mouse peritoneal macrophages at 4 °C for 16 h; one-site fit

Kd [1]: 8 nM
Molecule: α2M*-lysozyme complex formed by incubation at 50° C. (5 h), radio-iodinated with Na125I (from UniProt P01023 24-1474; P00698 19-147)

Kd [2]: 5 nM
B1: α2-macroglobulin* (NH3-treated, thiol ester-cleaved human α2-macroglobulin) (protein, UniProt P01023 24-1474, looked up)
chain: SVSGKPQYMVLVPSLLHTETTEKGCVLLSYLNETVTVSASLESVRGNRSLFTDLEAENDVLHCVAFAVPKSSSNEEVMFLTVQVKGPTQEFKKRTTVMVKNEDSLVFVQTDKSIYKPGQTVKFRVVSMDENFHPLNELIPLVYIQDPKGNRIAQWQSFQLEGGLKQFSFPLSSEPFQGSYKVVVQKKSGGRTEHPFTVEEFVLPKFEVQVTVPKIITILEEEMNVSVCGLYTYGKPVPGHVTVSICRKYSDASDCHGEDSQAFCEKFSGQLNSHGCFYQQVKTKVFQLKRKEYEMKLHTEAQIQEEGTVVELTGRQSSEITRTITKLSFVKVDSHFRQGIPFFGQVRLVDGKGVPIPNKVIFIRGNEANYYSNATTDEHGLVQFSINTTNVMGTSLTVRVNYKDRSPCYGYQWVSEEHEEAHHTAYLVFSPSKSFVHLEPMSHELPCGHTQTVQAHYILNGGTLLGLKKLSFYYLIMAKGGIVRTGTHGLLVKQEDMKGHFSISIPVKSDIAPVARLLIYAVLPTGDVIGDSAKYDVENCLANKVDLSFSPSQSLPASHAHLRVTAAPQSVCALRAVDQSVLLMKPDAELSASSVYNLLPEKDLTGFPGPLNDQDNEDCINRHNVYINGITYTPVSSTNEKDMYSFLEDMGLKAFTNSKIRKPKMCPQLQQYEMHGPEGLRVGFYESDVMGRGHARLVHVEEPHTETVRKYFPETWIWDLVVVNSAGVAEVGVTVPDTITEWKAGAFCLSEDAGLGISSTASLRAFQPFFVELTMPYSVIRGEAFTLKATVLNYLPKCIRVSVQLEASPAFLAVPVEKEQAPHCICANGRQTVSWAVTPKSLGNVNFTVSAEALESQELCGTEVPSVPEHGRKDTVIKPLLVEPEGLEKETTFNSLLCPSGGEVSEELSLKLPPNVVEESARASVSVLGDILGSAMQNTQNLLQMPYGCGEQNMVLFAPNIYVLDYLNETQQLTPEIKSKAIGYLNTGYQRQLNYKHYDGSYSTFGERYGRNQGNTWLTAFVLKTFAQARAYIFIDEAHITQALIWLSQRQKDNGCFRSSGSLLNNAIKGGVEDEVTLSAYITIALLEIPLTVTHPVVRNALFCLESAWKTAQEGDHGSHVYTKALLAYAFALAGNQDKRKEVLKSLNEEAVKKDNSVHWERPQKPKAPVGHFYEPQAPSAEVEMTSYVLLAYLTAQPAPTSEDLTSATNIVKWITKQQNAQGGFSSTQDTVVALHALSKYGAATFTRTGKAAQVTIQSSGTFSSKFQVDNNNRLLLQQVSLPELPGEYSMKVTGEGCVYLQTSLKYNILPEKEEFPFALGVQTLPQTCDEPKAHTSFQISLSVSYTGSRSASNMAIVDVKMVSGFIPLKPTVKMLERSNHVSRTEVSSNHVLIYLDKVSNQTLSLFFTVLQDVPVRDLKPAIVKVYDYYETDEFAIAEYNAPCSKDLGNA
modifications: thiol ester cleaved by NH3: free Cys949, Gln952 modified with -NH2; bait region intact; radio-iodinated with Na125I in the macrophage binding study
